Measured values published in patent US20150250895A1 (GEORGETOWN UNIVERSITY, published 2015).

Molecular target: T1, activated matriptase (human, UniProt Q9Y5Y6 1-855)
T1 sequence (looked up): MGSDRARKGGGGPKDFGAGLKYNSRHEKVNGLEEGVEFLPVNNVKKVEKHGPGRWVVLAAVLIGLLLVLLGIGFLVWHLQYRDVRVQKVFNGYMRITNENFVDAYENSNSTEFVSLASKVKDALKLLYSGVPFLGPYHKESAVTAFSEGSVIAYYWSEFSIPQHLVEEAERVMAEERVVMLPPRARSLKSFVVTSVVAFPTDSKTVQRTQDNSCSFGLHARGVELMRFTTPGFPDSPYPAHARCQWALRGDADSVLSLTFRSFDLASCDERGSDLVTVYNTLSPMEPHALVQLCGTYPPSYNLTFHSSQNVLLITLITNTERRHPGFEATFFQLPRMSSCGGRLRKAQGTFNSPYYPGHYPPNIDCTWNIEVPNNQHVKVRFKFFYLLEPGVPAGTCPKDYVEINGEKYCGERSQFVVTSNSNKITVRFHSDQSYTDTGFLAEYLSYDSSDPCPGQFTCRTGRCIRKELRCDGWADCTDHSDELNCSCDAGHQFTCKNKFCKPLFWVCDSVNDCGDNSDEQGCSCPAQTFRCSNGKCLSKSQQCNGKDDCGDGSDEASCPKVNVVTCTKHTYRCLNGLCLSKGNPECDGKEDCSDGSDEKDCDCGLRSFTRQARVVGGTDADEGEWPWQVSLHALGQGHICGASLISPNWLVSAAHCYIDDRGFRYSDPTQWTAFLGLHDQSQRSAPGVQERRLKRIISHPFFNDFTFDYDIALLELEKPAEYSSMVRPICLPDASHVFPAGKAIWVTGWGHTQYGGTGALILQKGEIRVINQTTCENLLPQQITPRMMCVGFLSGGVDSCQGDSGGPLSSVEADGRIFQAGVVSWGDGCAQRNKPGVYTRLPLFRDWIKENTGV
Experiment: cell-based or functional assay

B1: M17-DOX (monoclonal antibody M17 against activated matriptase conjugated to doxorubicin) (antibody, V domains shown)
VH: EVKLVESGGGLVQPGGSRKLSCAASGFTFSSFGMHWVRQAPEKGLEWVAYISSGSSTLHYADTVKGRFTISRDNPENTLLLMKLPSLCYGLLGSRNLSPRVLQ
VL: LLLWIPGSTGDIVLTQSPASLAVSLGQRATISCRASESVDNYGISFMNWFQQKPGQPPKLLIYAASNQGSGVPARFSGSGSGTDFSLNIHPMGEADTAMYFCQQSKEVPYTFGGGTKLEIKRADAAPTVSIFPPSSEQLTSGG
modifications: doxorubicin coupled via thioether bond formed by the SMCC reaction; sites not stated
In the case of B1, the “IC50, MTS cell proliferation (cytotoxicity) assay, breast cancer cells MDA-MB468” value is reported as 0.65 µg/mL.
